Measured values reported in patent publication US20240317847A1 (Bayer, published 2024).

T1: human IL-11 (human, UniProt P20809 22-199)
T1 construct: Invigate recombinant protein; biotinylated when immobilized in the Di-complex ELISA; also called hIL11; hIL-11
T1 sequence: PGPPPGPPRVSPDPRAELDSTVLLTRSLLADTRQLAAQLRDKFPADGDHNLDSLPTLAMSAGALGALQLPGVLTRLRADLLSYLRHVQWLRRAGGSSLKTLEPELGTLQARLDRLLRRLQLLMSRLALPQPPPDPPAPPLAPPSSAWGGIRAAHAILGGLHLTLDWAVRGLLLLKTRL

T2: human IL-11 (human, UniProt P20809 22-199)
T2 construct: Invigate, e.g. lot #C121021-19; biotinylated where coated in the ELISA; also called hIL-11; hIL11
T2 sequence: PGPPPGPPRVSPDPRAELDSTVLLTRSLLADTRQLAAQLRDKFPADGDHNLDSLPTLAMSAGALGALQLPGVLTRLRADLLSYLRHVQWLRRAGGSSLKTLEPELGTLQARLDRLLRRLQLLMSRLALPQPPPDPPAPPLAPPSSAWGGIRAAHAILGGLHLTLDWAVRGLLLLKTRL

T3: murine IL-11 (mouse, UniProt P47873 22-199)
T3 construct: Invigate, e.g. lot #C210819-09; biotinylated where coated in the ELISA; also called mIL-11; mIL11
T3 sequence: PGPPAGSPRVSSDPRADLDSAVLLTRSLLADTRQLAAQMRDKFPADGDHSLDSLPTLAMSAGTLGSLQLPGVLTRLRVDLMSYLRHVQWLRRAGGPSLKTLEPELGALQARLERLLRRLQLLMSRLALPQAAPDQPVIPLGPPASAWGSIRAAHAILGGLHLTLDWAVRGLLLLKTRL


Key:
[1] = molecular target: T1, human IL-11; assay: Tri-complex ELISA, hIL-11 + mIL-11Ra-Fc + hgp130-Fc, inhibition of complex formation; Tri-complex ELISA (IL-11/IL-11Ra/gp130 formation), efficacy only 25%
Protocol: In a first step, 25 μl of goat anti human IgG (Sigma, #12136), diluted 1:1000 in coating buffer (Candor, #121125) was coated on the plate at 4° C. overnight. Next day, the plate was washed one time with 50 μl PBST and then blocked with 50 μl SmartBlock (Candor, #113125) for one hour at room temperature (RT). […] After three additional washes of the coated and blocked microtiter plate with PBS-T, 25 μl of each mixture were added and the assay plate was incubated for one hour at room temperature. After three additional washes, anti-mouse-gp130 biotinylated antibody (R&D, #BAF468) or anti-human gp130 biotinylated antibody (R&D, #BAF228), both 1:1000 in 10% SmartBlock PBS-T, was added and incubated for 1 hour at RT. […] Then, the fluorescence was measured with a plate reader at 535/595 nm. […] Efficacy was calculated as [(signal measured at lowest antibody concentration−signal measured at the highest antibody concentration)×100] divided by (signal measured at lowest antibody concentration−signal measured in the absence of antibody at an IL11 concentration of 8.2E-11 [M]).
IgG converted antibodies were subjected to the experimental assay procedure described in Example 19 and IC50 [M], respectively efficacy (%) were calculated accordingly.

[2] = molecular target: T2, human IL-11; assay: Di-complex ELISA, competitor canine IL11RA-Fc on coated IL-11; Di-complex ELISA (blocking of IL-11/IL-11Ra), weak partial inhibition, efficacy 17.4%
Protocol: The assay is performed using streptavidin coated microtiter plates (Greiner bio-one, #781997). In a first step, 10 nM biotinylated mouse IL-11 (Invigate, Germany, e.g., lot #C210819-09) or human IL-11 (Invigate, Germany, e.g., lot #C121021-19) is coated in 25 μl PBS on the plate at 4° C. overnight. Next day, the plate is washed three times with 50 μl PBST and then blocked with 50 μl SmartBlock (Candor, #113125) for one hour at room temperature (RT). After additional three washes with PBST, 25 μl of a mixture of the murine anti IL-11 antibody and recombinant canine IL11RA-Fc fusion protein (Sino Biological, #70078-D02H) in PBS-T, 10% Smartblock are added simultaneously to the plate and incubated for one hour at RT. […] After three additional washes with PBS-T, 25 μl anti-human-POD (Sigma, #A0170) in PBS-T, 10% Smartblock is added and incubated for 1 hour at RT. After a final three washes with PBS-T, 25 μl AmplexRed (Fisher Scientific, A12222), 1/1000 in PBS, 0,003% H₂O₂, is added as substrate and incubated for 15 min at RT in the dark. Then, the fluorescence is measured with a plate reader at 535/595 nm. […] Efficacy was calculated as [(signal measured at lowest antibody concentration−signal measured at the highest antibody concentration)×100] divided by (signal measured at lowest antibody concentration−signal measured in the absence of IL11Ra). […]

[3] = molecular target: T3, murine IL-11; assay: Di-complex ELISA, competitor canine IL11RA-Fc on coated IL-11;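 for Efficacy (%): signal drop relative to signal at lowest antibody concentration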
[4] = molecular target: T3, murine IL-11; assay: cell-based or functional assay
[5] = molecular target: T2, human IL-11; assay: cell-based or functional assay

| IC50 [1] | IC50 [2] | Efficacy (%) [3] | IC50 [3] | RGA Efficacy (%) [4] | RGA IC50 [4] | RGA Efficacy (%) [5] | RGA IC50 [5] | Binder |
| --- | --- | --- | --- | --- | --- | --- | --- | --- |
| 1.5 nM |  |  |  |  |  |  |  | TPP-18087 (antibody, mouse IgG1, V domains shown, mIgG1, Lambda) VH: EVQLLESGGGLVQPGGSLRLSCAASGFTFSHYDMNWLRQAPGKGLEWVGVISYDGSNKFYADFVKGRFTISRDNSKNTLYLQMNSLRAEDTAVYYCARTPGSHFDYWGQGTLVTVSS VL: QSVLTQPPSASGTPGQRVTISCSGSSSNIGNNAVNWYQQLPGTAPKLLIYYDDLLPSGVPDRFSGSKSGTSASLAISGLRSEDEADYYCSAWDDSLNGVVFGGGTKLTVLG |
|  | 12 nM | 64.2% | 2.9 nM | 93.1% | 1 nM | 60.3% | 6.7 nM | TPP-18068 (antibody, mouse IgG1, mIgG1, Lambda) heavy: EVQLLESGGGLVQPGGSLRLSCAASGFTFSSYGMHWVRQAPGKGLEWVSVISYDGSYKYYADSVKGRFTISRDNSKNTLYLQMNSLRAEDTAVYYCAAGVPDYWGQGTLVTVSSAKTTPPSVYPLAPGSAAQTNSMVTLGCLVKGYFPEPVTVTWNSGSLSSGVHTFPAVLQSDLYTLSSSVTVPSSTWPSETVTCNVAHPASSTKVDKKIVPRDCGCKPCICTVPEVSSVFIFPPKPKDVLTITLTPKVTCVVVDISKDDPEVQFSWFVDDVEVHTAQTQPREEQFNSTFRSVSELPIMHQDWLNGKEFKCRVNSAAFPAPIEKTISKTKGRPKAPQVYTIPPPKEQMAKDKVSLTCMITDFFPEDITVEWQWNGQPAENYKNTQPIMDTDGSYFVYSKLNVQKSNWEAGNTFTCSVLHEGLHNHHTEKSLSHSPGK light: QSVLTQPPSASGTPGQRVTISCTGSSSNIGAGYDVHWYQQLPGTAPKLLIYSNNERPSGVPDRFSGSKSGTSASLAISGLRSEDEADYYCAAWDDSLNGPVFGGGTKLTVLGQPKSSPSVTLFPPSSEELETNKATLVCTITDFYPGVVTVDWKVDGTPVTQGMETTQPSKQSNNKYMASSYLTLTARAWERHSSYSCQVTHEGHTVEKSLSRADCS |
